Source: paper PMC11686323 (Communications Biology, 2024)

Molecular target: the molecule itself
Assay: cryo-EM structure

B1: phosphoglucomutase GlmM of Lactococcus lactis (enzyme, UniProt A2RIG0 1-452, looked up)
chain: MGKYFGTDGVRGEANVELTPEMAFKLGRFGGYVLSQHELETPKVYVGRDTRISGQMLASSLISGLLSVGIEVYDLGVIATPGVAYLVKKDGASAGVMISASHNPALDNGIKFFGGDGYKLEDEKELEIEALIDAKEDTLPRPSAQGLGMLHDYIEGVRKYQAFLKTTAEGDFEGYNVVLDTANGASYTSARAVFADLKANLTVIGENPDGLNINVKVGSTHPEAMAKKVVETGSDLGLAFDGDADRLIAVDENGEIVDGDKIMFIVGKYLLEQGKLAQDTLVTTVMSNLGFHLALEEAGINSVITAVGDRYVVEEMKKNNYNFGGEQSGHMIFLDYNTTGDGQLSAIQLLKVMRETGKTLSELASEVTIYPQKLVNVRVKDNAAKKSAMDVPAIQKVISEMETSMNGKGRILVRPSGTEPLLRVMAEAPTHEQVDHVVDTIVEVVEEEIGVK
With B1 the “stoichiometry N” value was 2.
